Entries after “also recorded” stand apart in the source; their conditions may differ. Where two headings read alike, the source gives them in different places.
B4: ERCC192-214 (central domain of ERCC1, N-terminal His6 tag) (other)
chain: MGSSHHHHHHSQDPLKPGAKSNSIIVSPRQRGNPVLKFVRNVPWEFGDVIPDYVLGQSTCALFLSLRYHNLHPDYIHGRLQSLGKNFALRVLLVQVDVKDPQQALKELAKMCILADCTLILAWSPEEAGRYLETYKA
notes: 15N-labeled (and perdeuterated) in some NMR experiments

Assays:
[1] = biological target: XPA (endogenous, in UV20 Chinese Hamster Ovary cells); experiment: cell-based or functional assay
[2] = tested on: NER activity in HeLa cell extracts; experiment: In vitro NER assay: excision of a 1,3-intrastrand cisplatin adduct from plasmid in HeLa cell extract with XPA peptide; format: biochemical; conditions: HeLa cell free extract, plasmid with 1,3-cisplatin intrastrand crosslink, peptide 46 nM to 92 μM
[3] = biological target: T1, ERCC1-XPF (Homo sapiens, UniProt P07992); experiment: Nuclease assay: incision of stem-loop DNA substrate by purified ERCC1-XPF; format: biochemical; conditions: 92 μM peptide, 0.4 mM MnCl2
T1 sequence (P07992 1-297): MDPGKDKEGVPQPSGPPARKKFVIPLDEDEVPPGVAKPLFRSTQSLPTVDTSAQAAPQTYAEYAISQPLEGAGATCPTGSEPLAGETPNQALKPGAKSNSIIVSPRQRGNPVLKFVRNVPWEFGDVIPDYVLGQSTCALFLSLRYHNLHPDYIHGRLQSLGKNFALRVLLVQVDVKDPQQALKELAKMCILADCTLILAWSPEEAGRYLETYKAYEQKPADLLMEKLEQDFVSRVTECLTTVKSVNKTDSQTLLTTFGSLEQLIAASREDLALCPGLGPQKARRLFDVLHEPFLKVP
T1 sequence (Q92889 1-916 partner): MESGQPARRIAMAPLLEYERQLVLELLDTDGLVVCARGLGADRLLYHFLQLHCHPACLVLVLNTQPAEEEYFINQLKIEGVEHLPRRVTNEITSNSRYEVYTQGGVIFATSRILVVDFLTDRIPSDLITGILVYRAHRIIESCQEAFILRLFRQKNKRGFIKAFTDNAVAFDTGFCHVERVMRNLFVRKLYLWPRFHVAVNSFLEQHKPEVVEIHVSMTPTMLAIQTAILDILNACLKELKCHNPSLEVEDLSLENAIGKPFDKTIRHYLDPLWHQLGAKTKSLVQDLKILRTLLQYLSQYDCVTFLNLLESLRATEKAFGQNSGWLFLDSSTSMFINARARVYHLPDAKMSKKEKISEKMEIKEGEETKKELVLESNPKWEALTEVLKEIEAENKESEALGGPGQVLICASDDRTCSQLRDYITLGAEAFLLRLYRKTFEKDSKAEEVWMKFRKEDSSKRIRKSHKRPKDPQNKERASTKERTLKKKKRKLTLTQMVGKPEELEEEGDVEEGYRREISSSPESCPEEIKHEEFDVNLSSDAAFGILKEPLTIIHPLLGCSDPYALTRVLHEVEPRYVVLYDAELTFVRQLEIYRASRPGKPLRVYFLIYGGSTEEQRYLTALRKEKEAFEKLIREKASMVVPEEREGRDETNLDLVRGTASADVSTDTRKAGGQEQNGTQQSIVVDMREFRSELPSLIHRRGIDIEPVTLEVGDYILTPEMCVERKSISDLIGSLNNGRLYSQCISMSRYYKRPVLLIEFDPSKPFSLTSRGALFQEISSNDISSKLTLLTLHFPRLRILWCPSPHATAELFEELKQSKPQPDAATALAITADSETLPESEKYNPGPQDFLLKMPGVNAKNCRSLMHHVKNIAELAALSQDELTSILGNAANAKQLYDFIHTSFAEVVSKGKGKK
Experimental: Nuclease assay. A substrate consisting of a 12 base pair stem with a 22 nucleotide loop (5′-[…](T)22[…]; SEQ ID NO:7) was 5′ end labeled using a T4 polynucleotide kinase and [γ-^32P]-ATP. […] The final reaction volume was 15 μl.

[4] = biological target: T2, ERCC192-214 (Homo sapiens, UniProt P07992); experiment: 15N HSQC NMR chemical shift perturbation of 15N-labeled ERCC1; format: binding; conditions: 15N HSQC
T2 construct: an ERCC1 central domain fragment consisting of amino acids 92-214 preceded by an N-terminal hexahistidine tag; made in house; host or cells: E. coli BL21(DE3), M9 minimal media with 15N-labeled NH4Cl
T2 sequence (P07992 92-214): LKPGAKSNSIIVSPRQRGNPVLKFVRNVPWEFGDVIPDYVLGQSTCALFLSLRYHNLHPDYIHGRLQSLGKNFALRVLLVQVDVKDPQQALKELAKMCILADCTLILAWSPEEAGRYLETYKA
Experimental: FIG. 3 illustrates the binding of XPA67-80 in a shallow groove of ERCC1. (A) A comparison of the two dimensional HSQC spectra for ^15N-labeled ERCC192-214 in the presence and absence of an unlabeled XPA67-80 peptide. The ^15N HSQC spectra reveal significant chemical shift changes for some ERCC1 residues (labeled) in the absence or presence of unlabeled XPA67-80. (B) Combined average chemical shift perturbations are calculated as Δχave=[((Δχ1H)^2+(Δχ15N/5)^2)/2)]^1/2 for each backbone amide of ERCC1 and shown as a histogram.
NMR experiments and determination of the structure of XPA-ERCC1 complex. All NMR data were acquired in the NMR Buffer described above. […] Backbone assignments of the free ERCC192-214 and ERCC1-XPA67-80 complex were performed using a standard set of triple-resonance experiments: HNCA/HN(CO)CA, HN(CA)CB/HN(COCA)CB and HNCO/HN(CA)CO.
Identification of the ERCC1 binding site in complex with XPA. The binding site for XPA on the surface of ERCC1 (FIG. 2B) was identified using two dimensional HSQC experiments. […] The ^15N HSQC spectrum of the ERCC1-XPA complex is consistent with a slow-exchange regime, implying a dissociation equilibrium constant below 1 μM for the complex. The XPA binding site on the ERCC1 central domain was identified using the backbone assignments for […] alone and in complex with XPA (see below). […]

[5] = tested on: NER activity in XPF-deficient cell extracts; experiment: In vitro NER assay in XPF-deficient cell extract supplemented with wild-type or mutant ERCC1-XPF; format: biochemical; conditions: cisplatin crosslink plasmid
Source text: Mutations in the XPA binding pocket of ERCC1 abolish NER in vitro. […] Mutant ERCC1 proteins were generated containing N110A or Y145A single mutations or a N110A/Y145A double mutation, and their activities compared to that of the wild-type ERCC1 protein.

[6] = tested on: UV20 Chinese Hamster Ovary cells; experiment: Restoration of UV resistance in ERCC1-deficient UV20 cells by lentivirally expressed ERCC1; format: cell-based
Experimental: Mutations in the XPA binding pocket of ERCC1 abolish NER in living cells. The ERCC1-N110A/Y145A double mutant protein was tested for its ability to interact with XPA and support NER activity in living cells. The double mutant and wild-type ERCC1 proteins were introduced into ERCC1-deficient UV20 Chinese Hamster Ovary cells using a lentiviral expression system. Proper expression of the ERCC1 proteins was detected using immunofluorescent detection using an antibody against the HA tag present on the lentivirally expressed ERCC1 protein. Two main parameters were compared for the wild-type and mutant proteins. Global NER activity was assessed by measuring the ability of the wild-type and double mutant ERCC1 proteins to restore UV resistance in UV-20 cells.

[7] = tested on: UV20 cells; experiment: Recruitment of ERCC1 and XPA to local UV damage foci (irradiation through polycarbonate filters, immunofluorescence); format: cell-based, Chinese Hamster; conditions: UV-irradiated UV20 cells, 5 μM pore filters
Experimental: The interaction of ERCC1 and XPA was investigated in living cells as follows (Volker et al., 2001, Gillet and Schärer, 2006): Cells were irradiated with UV irradiation through polycarbonate filters that are only translucent to UV light through their […]. This allows for the formation of spatially defined subnuclear region UV damage that can be detected as defined foci in fixed cells by antibodies against UV lesions in DNA as well as with antibodies against NER proteins recruited to these sites during the repair process.

[8] = biological target: B4; experiment: 15N HSQC of the ERCC1-XPA complex, slow-exchange regime
[9] = biological target: T3, ERCC196-214 (central domain of ERCC1, N-terminal His6 tag) (Homo sapiens (Human), UniProt P07992 96-214); experiment: competition titration, fluorescence anisotropy; reference is DNA binding to the ERCC1 central domain (1.5 µM)
T3 construct: not shown: N-terminal His6 tag
T3 sequence: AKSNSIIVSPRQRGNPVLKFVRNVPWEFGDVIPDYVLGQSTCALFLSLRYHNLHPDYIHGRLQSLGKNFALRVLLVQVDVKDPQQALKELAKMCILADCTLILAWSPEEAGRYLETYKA

[10] = biological target: B4; experiment: competition with 6FAM-labeled single-stranded 40mer DNA for ERCC1, fluorescence polarization, best fit to Eq. 9 (legend of FIG. 7)
[11] = biological target: T3, ERCC196-214 (central domain of ERCC1, …); experiment: competition with 6FAM-labeled single-stranded 40mer DNA for ERCC1, fluorescence anisotropy, fit to a competitive binding model (Eq. 9)
[12] = biological target: B4; experiment: 15N HSQC of 15N-labeled ERCC1 with added mutant peptide (data not shown)
[13] = biological target: T4, XPA1-273 (Homo sapiens (Human), UniProt P23025 1-273); experiment: gel filtration (S100) of the complex; ERCC1 central domain construct (92-214 or 96-214) not specified
T4 construct: Cloned into pET19bpps; His10 tag cleaved with Prescission protease; also called full length XPA protein

[14] = biological target: T5, XPA59-273 (Homo sapiens (Human), UniProt P23025 59-273); experiment: as above
T5 construct: Cloned into pET19bpps; His10 tag cleaved with Prescission protease

[15] = biological target: B4; experiment: sedimentation equilibrium analytical ultracentrifugation

T4 sequence (P23025 whole entry, the tested form may be a part): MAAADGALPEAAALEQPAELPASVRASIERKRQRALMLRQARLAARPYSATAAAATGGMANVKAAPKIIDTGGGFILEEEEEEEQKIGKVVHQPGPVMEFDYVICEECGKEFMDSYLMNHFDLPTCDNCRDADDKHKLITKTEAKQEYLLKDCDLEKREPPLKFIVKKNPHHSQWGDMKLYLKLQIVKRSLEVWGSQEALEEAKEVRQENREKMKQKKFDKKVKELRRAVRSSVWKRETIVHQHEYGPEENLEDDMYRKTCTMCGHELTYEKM

Molecule: ERCC1-N110A/Y145A double mutant protein with HA tag, lentivirally expressed in UV20 Chinese Hamster Ovary cells (from UniProt P07992 1-297)
- UV resistance of UV20 cells [1]: < 50%

Molecule: XPA67-80^F75A: mutant XPA67-80 peptide with alanine substitution at Phe75 (KIIDTGGGAILEEE)
- effect on NER excision of the lesion-containing oligonucleotide [2]: did not affect NER activity; also recorded: has no effect
- effect on intrinsic nuclease activity of ERCC1-XPF [3]: do not affect
- binding to 15N-labeled ERCC1 by chemical shift perturbation [4]: does not bind to ERCC1

Molecule: wild-type ERCC1: wild-type ERCC1 protein, expressed as heterodimer with XPF in insect cells or lentivirally in UV20 cells
- NER activity restored by ERCC1 (heterodimer with XPF) [5]: restored NER activity
- restoration of UV resistance ([6]; doses of 1, 2, 4 and 10 J/m^2): fully restored UV resistance
- recruitment of ERCC1 to sites of nuclear UV damage [7]: colocalized at sites containing 6-4 photoproducts

B1: ERCC1-N110A/Y145A: mutant ERCC1 protein with N110A/Y145A double mutation (protein)
chain: MDPGKDKEGVPQPSGPPARKKFVIPLDEDEVPPGVAKPLFRSTQSLPTVDTSAQAAPQTYAEYAISQPLEGAGATCPTGSEPLAGETPNQALKPGAKSNSIIVSPRQRGAPVLKFVRNVPWEFGDVIPDYVLGQSTCALFLSLRAHNLHPDYIHGRLQSLGKNFALRVLLVQVDVKDPQQALKELAKMCILADCTLILAWSPEEAGRYLETYKAYEQKPADLLMEKLEQDFVSRVTECLTTVKSVNKTDSQTLLTTFGSLEQLIAASREDLALCPGLGPQKARRLFDVLHEPFLKVP
modifications: left off: small tags and cut ends
notes: mutant ERCC1 protein with N110A/Y145A double mutation
- NER activity restored by ERCC1 (heterodimer with XPF) [5]: only marginal NER activity
- restoration of UV resistance [6]: less than 50%
- recruitment of ERCC1 to sites of nuclear UV damage [7]: not recruited to sites of active NER

B2: XPA67-80 peptide (peptide)
peptide: KIIDTGGGFILEEE
notes: Synthetic peptide made by solid phase methods, residues 67-80 of XPA; also called XPA peptide; synthetic XPA fragment
- Kd [8]: < 1000 nM
- fold higher affinity than single stranded DNA [9]: ~3 fold
- Kd [10]: 300 nM
- Kd [11]: 540 nM

B3: XPA67-80^F75A mutant peptide (peptide)
peptide: KIIDTGGGAILEEE
notes: Synthetic peptide, alanine substitution at Phe75 of XPA67-80
- binding result [12]: no binding

Molecule: B4
- binding result [13]: binds
- binding result [14]: binds

B5: XPA59-93 (peptide)
peptide: MANVKAAPKIIDTGGGFILEEEEEEEQKIGKVVHQ
notes: Expressed in E. coli from pET19bpps; The N-terminal (His)10 tag was cleaved with Prescission protease; 15N-labeled in some NMR experiments; also called XPA59-93 peptide; XPA59-93 fragment
- binding result [15]: binds

Source: US20100331233A1, “CRYSTAL OF XPA AND ERCC1 COMPLEX AND USES THEREOF” (priority 2007, published 2010)
